# According to the supplement of paper PMC10724198:
# ± gives the standard deviation of the averaged measurements.
# Tests used:
# Saccharomyces cerevisiae [1] = assay: protein stability index of tFT-peptide fusion in wild type (PSI (0-1 scale)); higher = more stable (slower turnover); details: genetic background: wild type
# Description: (§1)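 MPS profiling in S. cerevisiae of two library types built from selected 12-aa C-degron peptides (IN1, IN2, LN1, LN3, VN2, R1-R5, W1-W3, Atg1 and Rpa12 C-termini): saturation mutagenesis libraries and C-terminal +1 capping libraries (13 aa). Each peptide is fused to the C-terminus of a sfGFP-mCherry timer, after a GGGS linker. Cells are FACS-sorted into 8 mCherry/sfGFP bins and sequenced. PSI runs from 0 (unstable) to 1 (stable), measured once in wild type and in the das1Δ or doa10Δ background.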
# Saccharomyces cerevisiae [2] = assay: protein stability index of tFT-peptide fusion in deletion strain of DAS1 (PSI (0-1 scale)); higher = more stable (slower turnover)
# Description: as §1
# Saccharomyces cerevisiae [3] = assay: protein stability index of tFT-peptide fusion (C-terminal peptide) (PSI (0-1 scale)); higher = more stable (slower turnover); details: temperature: 30 C
# Description: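 MPS profiling in S. cerevisiae of the yeast C-terminome library: the last 12 aa of each annotated ORF are fused to the C-terminus of a sfGFP-mCherry timer, after a GGGS linker. Cells are FACS-sorted into 8 mCherry/sfGFP bins and deep-sequenced. PSI runs from 0 (unstable) to 1 (stable); wild type and das1Δ backgrounds, two technical replicates each.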
# [4] = genetic background: das1 deletion
# 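Throughout, for protein stability index of tFT-peptide fusion in deletion strain of DAS1: PSI is a weighted mean of each variant's read distribution over the sorted stability bins, computed only for variants having over 10 reads in total.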
# 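Throughout, for protein stability index of tFT-peptide fusion in wild type: PSI derived as read-weighted mean over the 8 sorting bins, only variants exceeding 10 total reads kept, mCherry placed adjacent to the peptide and sfGFP distal.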
Sequence,protein stability index (Saccharomyces cerevisiae [1]),protein stability index (Saccharomyces cerevisiae [2]),protein stability index (Saccharomyces cerevisiae [3]; [4]),protein stability index (Saccharomyces cerevisiae [3]; genetic background: wild type)
AAWRVGLWRGAS,0.503,0.72,,
AFWRVGLWRGAS,0.496,0.704,,
AKWRVGLWRGAS,0.392,0.692,,
ARARVGLWRGAS,0.531,0.688,,
ARGRVGLWRGAS,0.432,0.685,,
ARWHVGLWRGAS,0.365,0.71,,
ARWPVGLWRGAS,0.399,0.703,,
ARWQVGLWRGAS,0.444,0.656,,
ARWRFGLWRGAS,0.581,0.698,,
ARWRHGLWRGAS,0.666,0.685,,
ARWRVGLARGAS,0.707,0.692,,
ARWRVGLNRGAS,0.68,0.668,,
ARWRVGLQRGAS,0.677,0.69,,
ARWRVGLSRGAS,0.669,0.695,,
ARWRVGLWEGAS,0.675,0.658,,
ARWRVGLWPGAS,0.71,0.689,,
ARWRVGLWRAAS,0.117,0.683,,
ARWRVGLWRDAS,0.6,0.702,,
ARWRVGLWREAS,0.169,0.668,,
ARWRVGLWRGAC,0.123,0.681,,
ARWRVGLWRGASD,0.688,0.686,,
ARWRVGLWRGASF,0.661,0.679,,
ARWRVGLWRGASI,0.652,0.665,,
ARWRVGLWRGASQ,0.661,0.646,,
ARWRVGLWRGAST,0.659,0.682,,
ARWRVGLWRGIS,0.109,0.68,,

Sequence,protein stability index (Saccharomyces cerevisiae [1]),protein stability index (Saccharomyces cerevisiae [2]),protein stability index (Saccharomyces cerevisiae [3]; [4]),protein stability index (Saccharomyces cerevisiae [3]; genetic background: wild type)
ARWRVGLWRGKS,0.653,0.679,,
ARWRVGLWRGSS,0.516,0.686,,
ARWRVGLWRGTS,0.318,0.682,,
ARWRVGLWRPAS,0.645,0.691,,
ARWRVGLWRSAS,0.102,0.693,,
ARWRVPLWRGAS,0.646,0.684,,
ARWTVGLWRGAS,0.495,0.692,,
ARYRVGLWRGAS,0.567,0.668,,
CLIQPLPVQFLN,0.103,0.548,,
CRSCGYKFRTNN,0.243,0.708,,
CSSCGYKFRTNN,0.216,0.695,,
CTGCGYKFRTNN,0.231,0.678,,
CTICGYKFRTNN,0.27,0.67,,
CTQCGYKFRTNN,0.25,0.697,,
CTRCGYKFRTNN,0.231,0.699,,
CTSCGNKFRTNN,0.52,0.695,,
CTSCGYDFRTNN,0.639,0.691,,
CTSCGYKFRTHN,0.325,0.717,,
CTSCGYKFRTMN,0.186,0.682,,
CTSCGYKFRTNK,0.689,0.704,,
CTSCGYKFRTNND,0.692,0.7,,
CTSCGYKFRTNNN,0.674,0.677,,
CTSCGYKFRTNT,0.579,0.693,,
CTSCGYKFTTNN,0.675,0.704,,
CTSCGYKIRTNN,0.261,0.704,,
CTSCGYQFRTNN,0.496,0.692,,

Sequence,protein stability index (Saccharomyces cerevisiae [1]),protein stability index (Saccharomyces cerevisiae [2]),protein stability index (Saccharomyces cerevisiae [3]; [4]),protein stability index (Saccharomyces cerevisiae [3]; genetic background: wild type)
CTSCGYSFRTNN,0.391,0.695,,
CTSCGYWFRTNN,0.438,0.668,,
CTSCMYKFRTNN,0.207,0.689,,
VTPEEDEEEDEE [RPL22A C-terminal 12 aa],,,0.68 ± 0.03,0.676 ± 0.062
VYGSERDIRAKF [TES1 C-terminal 12 aa],,,0.8078 ± 0.007,0.816 ± 0.068
VYKDWEMNLMLS [ARG81 C-terminal 12 aa],,,0.727 ± 0.025,0.656 ± 0.024
VYLSVIILMGNG [EMA17 C-terminal 12 aa],,,0.212 ± 0.024,0.247 ± 0.012
WEDKYPEMGVTV [YHL044W C-terminal 12 aa],,,0.6911 ± 0.003,0.706 ± 0.0089
WTWLDGKFPTFA [GRE3 C-terminal 12 aa],,,0.751 ± 0.023,0.7093 ± 0.0009
WVCQEILKLCKD [NRK1 C-terminal 12 aa],,,0.675 ± 0.0095,0.713 ± 0.036
WVRLPTTSHGLD [SPO73 C-terminal 12 aa],,,0.71917 ± 0.00042,0.733 ± 0.016
WYQIVVQMIYIC [PSY1 C-terminal 12 aa],,,0.186 ± 0.0065,0.0907 ± 0.006
YDLVEKCVWRGI [ORC3 C-terminal 12 aa],,,0.707 ± 0.041,0.716 ± 0.022
YEEALKLGWDKN [OYE2 C-terminal 12 aa],,,0.735 ± 0.046,0.762 ± 0.0096
YEEAVDLGWNKN [OYE3 C-terminal 12 aa],,,0.721 ± 0.009,0.714 ± 0.042
YGSAPSLDSLFL [YJL067W C-terminal 12 aa],,,0.725 ± 0.02,0.6981 ± 0.0068
YGTSYVFAISFK [YNL266W C-terminal 12 aa],,,0.602 ± 0.036,0.606 ± 0.0098
YIHTYIYLLFVY [YIL100C-A C-terminal 12 aa],,,0.222 ± 0.01,0.198 ± 0.036
YIVECIKNVLTK [APL3 C-terminal 12 aa],,,0.686 ± 0.038,0.698 ± 0.018
YKKMKEMRKKRR [FCF2 C-terminal 12 aa],,,0.703 ± 0.022,0.71 ± 0.05
YLADELSKALLA [RFA1 C-terminal 12 aa],,,0.673 ± 0.0099,0.6545 ± 0.0044
YMMNSQSPRGKI [POM34 C-terminal 12 aa],,,0.71 ± 0.0093,0.732 ± 0.074
YNITQQILQFLH [VAC8 C-terminal 12 aa],,,0.701 ± 0.024,0.327 ± 0.0072
YPAREGEVLRPN [AKR2 C-terminal 12 aa],,,0.675 ± 0.025,0.697 ± 0.017
YSAVGNFFSRKK [YGR035W-A C-terminal 12 aa],,,0.718 ± 0.019,0.6696 ± 0.002
